Experimental findings from publication doi:10.1101/2022.02.28.482149 (bioRxiv, 2022) are described below.

This data set deals with the molecule itself. Description: crystal structure.

B1: MaFRSA (Methanomethylophilus alvus pyrrolysyl-tRNA synthetase, MaPylRS N166A:V168A) (enzyme)
chain: MTVKYTDAQIQRLREYGNGTYEQKVFEDLASRDAAFSKEMSVASTDNEKKIKGMIANPSRHGLTQLMNDIADALVAEGFIEVRTPIFISKDALARMTITEDKPLFKQVFWIDEKRALRPMLAPNLYSVMRDLRDHTDGPVKIFEMGSCFRKESHSGMHLEEFTMLALADMGPRGDATEVLKNYISVVMKAAGLPDYDLVQEESDVYKETIDVEINGQEVCSAAVGPHYLDAAHDVHEPWSGAGFGLERLLTIREKYSTVKKGGASISYLNGAKIN
On to B1, for which the binding result is reported as “binds”.
